B1: E. coli tyrB: E. coli tyrosine aminotransferase (tyrB, SEQ ID NOS: 31 and 32) (protein)
chain: VFQKVDAYAGDPILTLMERFKEDPRSDKVNLSIGLYYNEDGIIPQLQAVAEAEARLNAQPHGASLYLPMEGLNCYRHAIAPLLFGADHPVLKQQRVATIQTLGGSGALKVGADFLKRYFPESGVWVSDPTWENRVAIFAGAGFEVSTYPWYDEATNGVRFNDLLATLKTLPARSIVLLHPCCHNPTGADLTNDQWDAVIEILKARELIPFLDIAYQGFGAGMEEDAYAIRAIASAGLPALVSNSFSKIFSLYGERVGGLSVMCEDAEAAGRVLGQLKATVRRNYSSPPNFGAQVVAAVLNDEALKASWLAEVEEMRTRILAMRQELVKVLSTEMPERNFDYLLNQRGMFSYTGLSAAQVDRLREEFGVYLIASGRMCVAGLNTANVQRVAKAFAAVM
modifications: E. coli
B2: Porcine type II-A: Glutamic-oxaloacetic transaminase from pig heart (type IIa), Sigma G7005 (protein, UniProt P00503 2-413, looked up)
Aspartate aminotransferase, …: APPSVFAEVPQAQPVLVFKLIADFREDPDPRKVNLGVGAYRTDDCQPWVLPVVRKVEQRIANDSSLNHEYLPILGLAEFRTCASRLALGDDSPALQEKRVGGVQSLGGTGALRIGAEFLARWYNGTNNKDTPVYVSSPTWENHNGVFTTAGFKDIRSYRYWDTEKRGLDLQGFLSDLENAPEFSIFVLHACAHNPTGTDPTPEQWKQIASVMKRRFLFPFFDSAYQGFASGNLEKDAWAIRYFVSEGFELFCAQSFSKNFGLYNERVGNLTVVAKEPDSILRVLSQMEKIVRVTWSNPPAQGARIVARTLSDPELFHEWTGNVKTMADRILSMRSELRARLEALKTPGTWNHITDQIGMFSFTGLNPKQVEYLINEKHIYLLPSGRINMCGLTTKNLDYVATSIHEAVTKIQ
B3: Porcine type I: commercial porcine glutamate-oxaloacetate aminotransferase, Sigma G2751 (protein, UniProt P00503 2-413, looked up)
Aspartate aminotransferase, …: APPSVFAEVPQAQPVLVFKLIADFREDPDPRKVNLGVGAYRTDDCQPWVLPVVRKVEQRIANDSSLNHEYLPILGLAEFRTCASRLALGDDSPALQEKRVGGVQSLGGTGALRIGAEFLARWYNGTNNKDTPVYVSSPTWENHNGVFTTAGFKDIRSYRYWDTEKRGLDLQGFLSDLENAPEFSIFVLHACAHNPTGTDPTPEQWKQIASVMKRRFLFPFFDSAYQGFASGNLEKDAWAIRYFVSEGFELFCAQSFSKNFGLYNERVGNLTVVAKEPDSILRVLSQMEKIVRVTWSNPPAQGARIVARTLSDPELFHEWTGNVKTMADRILSMRSELRARLEALKTPGTWNHITDQIGMFSFTGLNPKQVEYLINEKHIYLLPSGRINMCGLTTKNLDYVATSIHEAVTKIQ
B4: L. major bsat: Leishmania major broad substrate aminotransferase (bsat, SEQ ID NOS: 7 and 8) (protein)
chain: MSMQAAMTTAERWQKIQAQAPDVIFDLAKRAAAAKGPKANLVIGAYRDEQGRPYPLRVVRKAEQLLLDMNLDYEYLPISGYQPFIDEAVKIIYGNTVELENLVAVQTLSGTGAVSLGAKLLTRVFDAETTPIYLSDPTWPNHYGVVKAAGWKNICTYAYYDPKTVSLNFEGMKKDILAAPDGSVFILHQCAHNPTGVDPSQEQWNEIASLMLAKHHQVFFDSAYQGYASGSLDTDAYAARLFARRGIEVLLAQSFSKNMGLYSERAGTLSLLLKDKTKRADVKSVMDSLIREEYTCPPAHGARLAHLILSNNELRKEWEAELSAMAERIRTMRRTVYDELLRLQTPGSWEHVINQIGMFSFLGLSKAQCEYCQNHNIFITVSGRANMAGLTHETALMLAQTINDAVRNVNRE
modifications: Leishmania major
B5: S. meliloti tatA: Sinorhizobium meliloti tyrosine aminotransferase (tatA, SEQ ID NOS: 1 and 2) (protein, listed as Sinorhizobium meliloti)
chain: MFDALARQADDPLLFLIGLFRKDERPGKVDLGVGVYRDETGRTPIFRAVKAAEKRLLETQDSKAYIGPEGDLVFLDRLWELVGGDTIERSHVAGVQTPGGSGALRLAADLIARMGGRGIWLGLPSWPNHAPIFKAAGLDIATYDFFDIPSQSVIFDNLVSALEGAASGDAVLLHASCHNPTGGVLSEAQWMEIAALVAERGLLPLVDLAYQGFGRGLDQDVAGLRHLLGVVPEALVAVSCSKSFGLYRERAGAIFARTSSTASADRVRSNLAGLARTSYSMPPDHGAAVVRTILDDPELRRDWTEELETMRLRMTGLRRSLAEGLRTRWQSLGAVADQEGMFSMLPLSEAEVMRLRTEHGIYMPASGRINIAGLKTAEAAEIAGKFTSL
B6: L. amylovorus araT: Lactobacillus amylovorus aromatic aminotransferase (araT, SEQ ID NOS: 11 and 12), novel (protein, listed as Lactobacillus amylovorus)
chain: MPELANDLGLSKKITDVKASGIRIFDNKVSAIPGIIKLTLGEPDMNTPEHVKQAAIKNIADNDSHYAPQKGKLELRKAISKYLKKITGIEYDPETEIVVTVGATEAINATLFAITNPGDKVAIPTPVFSLYWPVATLADADYVLMNTAEDGFKLTPKKLEETIKENPTIKAVILNYPTNPTGVEYSEDEIKALAKVIKDNHLYVITDEIYSTLTYGVKHFSIASLIPERAIYISGLSKSHAMTGYRLGYVAGPAKIMAEIGKVHGLMVTTTTDSSQAAAIEALEHGLDDPEKYREVYEKRRDYVLKELAEIEMQAVKPEGAFYIFAKIPAKYGKDDMKFALDLAFKEKVGITPGSAFGPGGEGHIRLSYASSDENLHEAMKRMKKVLQEDE
B7: E. coli KHG: 4-hydroxy-2-oxoglutarate glyoxylate lyase (KHG aldolase) from E. coli (protein, UniProt P0A955 1-213, looked up)
KHG/KDPG aldolase: MKNWKTSAESILTTGPVVPVIVVKKLEHAVPMAKALVAGGVRVLEVTLRTECAVDAIRAIAKEVPEAIVGAGTVLNPQQLAEVTEAGAQFAISPGLTEPLLKAATEGTIPLIPGISTVSELMLGMDYGLKEFKFFPAEANGGVKALQAIAGPFSQVRFCPTGGISPANYRDYLALKSVLCIGGSWLVPADALEAGDYDRITKLAREAVEGAKL
B8: R. sphaeroides 35053 msa: R. sphaeroides 35053 multiple substrate aminotransferase (SEQ ID NOS: 13 and 14) (protein)
chain: MREPLALEIDPGHGGPLFLAIAEAITLDITRGRLRPGARLPGTRALARALGVHRNTVDAAYQELLTQGWLQAEPARGTFVAQDLPQGMLVHRPAPAPVEPVAMRAGLAFSDGAPDPELVPDKALARAFRRALLSPAFRAGADYGDARGTSSLREALAAYLASDRGVVADPARLLIARGSQMALFLVARAALAPGEAIAVEEPGYPLAWEAFRAAGAEVRGVPVDGGGLRIDALEAALARDPRIRAVYVTPHHQYPTTVTMGAARRLQLLELAERHRLALIEDDYDHEYRFEGRPVLPLAARAPEGLPLIYVGSLSKLLSPGIRLGYALAPERLLTRMAAARAAIDRQGDAPLEAALAELIRDGDLGRHARKARRVYRARRDLLAERLTAQLAGRAAFDLPAGGLALWLRCAGVSAETWAEAAGQAGLALLPGTRFALESPAPQAFRLGYAALDEGQIARAVEILARSFPG
modifications: R. sphaeroides

Experiments:
Format in all cases: biochemical
[1] = tryptophan aminotransferase activity, production of indole-pyruvic acid; conditions: for tryptophan aminotransferase activity (in words): recombinant clones expressed in E. coli
Method: Cell extracts were analyzed by SDS-PAGE, and assayed for tryptophan aminotransferase activity by following production of indole-pyruvic acid using the following protocol. One mL reactions were carried out in 50 mM sodium tetraborate (pH 8.5), 0.5 mM EDTA, 0.5 mM sodium arsenate, 50 μM pyridoxal phosphate, 5 mM α-ketoglutarate, and 5 mM L-tryptophan. The reactions were initiated by the addition of cell free extracts or purified enzyme and were incubated 30 minutes at 30° C. 20% TCA (200 μL) was added to stop the reaction, and the precipitated protein was removed by centrifugation. The absorbance at 327 nm was measured and compared to a standard curve of freshly prepared indole-3-pyruvate in the assay buffer. Control reactions without the substrate tryptophan or using cell-free extracts from clones transformed with pET30a alone were also performed.
Due to background from the native E. coli aminotransferases in cell extracts, the recombinant fusion proteins each containing an aminotransferase protein fused to the pET30 amino terminal HIS6-Tag/S-Tag (6×HIS tag disclosed as SEQ ID NO: 90) were purified using immobilized metal affinity chromatography with His-Bind cartridges following manufacturer's protocols (Novagen, Madison, Wis.). The HIS6-Tag sequence (SEQ ID NO: 90) of the fusion proteins binds to the divalent Ni^2+ cations immobilized on IDA-based His-Bind resin. The eluent fractions were desalted on PD-10 (Amersham Biosciences, Piscataway, N.J.) columns and eluted in 50 mM Tris, pH 7.0. Purified proteins were analyzed by SDS-PAGE and assayed for aminotransferase activity.
Table 1 lists the specific activities measured in micrograms of indole-3-pyruvate (I3P) formed per milligram protein per minute. […] In these cases a ‘>’ precedes the specific activity number.

[2] = monatin aminotransferase assay (loss of monatin by LC/MS)
Method: Transamination activity. Monatin aminotransferase assays were conducted with the aspartate aminotransferase (AspC) from E. coli, the tyrosine aminotransferase (TyrB) from E. coli, the broad substrate aminotransferase (BSAT) from L. major, and the two commercially available porcine glutamate-oxaloacetate aminotransferases described in Example 1. Both oxaloacetate and alpha-ketoglutarate were tested as the amino acceptor. The assay mixture contained (in 0.5 mL) 50 mM Tris-HCl, pH 8.0, 0.05 mM PLP, 5 mM amino acceptor, 5 mM monatin, and 25 μg of aminotransferase. The assays were incubated at 30° C. for 30 minutes, and the reactions were stopped by addition of 0.5 mL isopropyl alcohol. The loss of monatin was monitored by LC/MS (Example 6). […] The relative activity with oxaloacetate was: BSAT>AspC>porcine type IIa>porcine type I=TyrB. The relative activity with alpha-ketoglutarate was: BSAT>AspC>porcine type I>porcine type IIa>TyrB.

[3] = in vitro monatin production with aldolase and aminotransferase; conditions: 30 μg/mL KHG enzyme, 50 mM Tris pH 8.3, saturating tryptophan, one hour
[4] = purified (P), 5 mM L-tryptophan, 30 minutes at 30° C.
[5] = cell extracts (CE), 5 mM L-tryptophan, 30 minutes at 30° C.

Molecule | Specific Activity [1, 4] | Specific Activity [1, 5] | other results
B1 | 1 μg I3P/mg protein/min |  | 
B2 |  |  | Specific Activity ([1]; commercial enzyme (Sigma)): 1.5 μg I3P/mg protein/min
B3 |  |  | Specific Activity ([1]; commercial enzyme (Sigma)): 1 μg I3P/mg protein/min
B4 | >4280 μg I3P/mg protein/min | >49.3 μg I3P/mg protein/min | tryptophan aminotransferase activity (in words) [1]: significant levels of tryptophan aminotransferase activity; monatin transamination activity (in words) ([2]; oxaloacetate as the amino acceptor, 5 mM monatin, 25 μg aminotransferase, 30° C. 30 minutes): highest amount of activity
B5 | >931 μg I3P/mg protein/min | >28.6 μg I3P/mg protein/min | tryptophan aminotransferase activity (in words) [1]: significant levels of tryptophan aminotransferase activity; conversion of monatin to MP (in words) ([2]; similar assays, conditions tested): did not appear to detectably convert monatin to MP
B6 | 0 μg I3P/mg protein/min | 1.26 μg I3P/mg protein/min | 
B7 |  |  | monatin produced [3]: 3000 ng/mL
B8 | 0 μg I3P/mg protein/min | 3.97 μg I3P/mg protein/min | 

Reference: patent US8206955B2, “Production of monatin and monatin precursors” (Cargill, Incorporated, priority 2003, dated 2012)
